Reference: the RNAGym collection of RNA variant scans (doi:10.1021/acssynbio.7b00057)

B1: Pistol ribozyme (parent)
chain: GGGUCGUUGUUCCAUAAUCGCGUGGAUAUGGCACGCAAGUUUCUACCGGGCACCGUAAAUGUCCGACUGGAGCCGUUCGGGCGGCUAUAAACAGACCUCAGGCCCGAAGCGUGGCGGCACCUGCCGCCGGUGGUAAAAAAGAUCGGAAGAGCACACGUCU

Variants of: B1
Assay: aptazyme ON/OFF ratio, guanine; higher = stronger switching; co-transcriptional cleavage with and without guanine

Variant	aptazyme ON/OFF ratio
GGGUCGAUUCUCUAUAAUCGCGUGGAUAUGGCACGCAAGUUUCUACCGGGCACCGUAAAUGUCCGACUGGAGCCGUUCGGGCGGCUAUAAACAGACCUCAGGCCCGAAGCGUGGCGGCACCUGCCGCCGGUGGUAAAAAAGAUCGGAAGAGCACACGUCU [U7A G9U U10C C13U]	1.18
GGGUCGUCCUCGUAUAAUCGCGUGGAUAUGGCACGCAAGUUUCUACCGGGCACCGUAAAUGUCCGACUGGAGCCGUUCGGGCGGCUAUAAACAGACCUCAGGCCCGAAGCGUGGCGGCACCUGCCGCCGGUGGUAAAAAAGAUCGGAAGAGCACACGUCU [U8C G9C U11C C12G C13U]	1.15
GGGUCGGUCCGGCAUAAUCGCGUGGAUAUGGCACGCAAGUUUCUACCGGGCACCGUAAAUGUCCGACUGGAGCCGUUCGGGCGGCUAUAAACAGACCUCAGGCCCGAAGCGUGGCGGCACCUGCCGCCGGUGGUAAAAAAGAUCGGAAGAGCACACGUCU [U7G G9C U10C U11G C12G]	1.1
GGGUCGUAGACUUAUAAUCGCGUGGAUAUGGCACGCAAGUUUCUACCGGGCACCGUAAAUGUCCGACUGGAGCCGUUCGGGCGGCUAUAAACAGACCUCAGGCCCGAAGCGUGGCGGCACCUGCCGCCGGUGGUAAAAAAGAUCGGAAGAGCACACGUCU [U8A U10A U11C C12U C13U]	1.06
GGGUCGGGAUAGGAUAAUCGCGUGGAUAUGGCACGCAAGUUUCUACCGGGCACCGUAAAUGUCCGACUGGAGCCGUUCGGGCGGCUAUAAACAGACCUCAGGCCCGAAGCGUGGCGGCACCUGCCGCCGGUGGUAAAAAAGAUCGGAAGAGCACACGUCU [U7G U8G G9A U11A C12G C13G]	1.06
GGGUCGAGUUCUCAUAAUCGCGUGGAUAUGGCACGCAAGUUUCUACCGGGCACCGUAAAUGUCCGACUGGAGCCGUUCGGGCGGCUAUAAACAGACCUCAGGCCCGAAGCGUGGCGGCACCUGCCGCCGGUGGUAAAAAAGAUCGGAAGAGCACACGUCU [U7A U8G G9U U11C C12U]	1.54
GGGUCGCUUGGAAAUAAUCGCGUGGAUAUGGCACGCAAGUUUCUACCGGGCACCGUAAAUGUCCGACUGGAGCCGUUCGGGCGGCUAUAAACAGACCUCAGGCCCGAAGCGUGGCGGCACCUGCCGCCGGUGGUAAAAAAGAUCGGAAGAGCACACGUCU [U7C G9U U10G U11G C12A C13A]	1.1
GGGUCGAAGCGAAAUAAUCGCGUGGAUAUGGCACGCAAGUUUCUACCGGGCACCGUAAAUGUCCGACUGGAGCCGUUCGGGCGGCUAUAAACAGACCUCAGGCCCGAAGCGUGGCGGCACCUGCCGCCGGUGGUAAAAAAGAUCGGAAGAGCACACGUCU [U7A U8A U10C U11G C12A C13A]	1.12
GGGUCGCAAUUCAAUAAUCGCGUGGAUAUGGCACGCAAGUUUCUACCGGGCACCGUAAAUGUCCGACUGGAGCCGUUCGGGCGGCUAUAAACAGACCUCAGGCCCGAAGCGUGGCGGCACCUGCCGCCGGUGGUAAAAAAGAUCGGAAGAGCACACGUCU [U7C U8A G9A C13A]	1.15
GGGUCGGAGGCGGAUAAUCGCGUGGAUAUGGCACGCAAGUUUCUACCGGGCACCGUAAAUGUCCGACUGGAGCCGUUCGGGCGGCUAUAAACAGACCUCAGGCCCGAAGCGUGGCGGCACCUGCCGCCGGUGGUAAAAAAGAUCGGAAGAGCACACGUCU [U7G U8A U10G U11C C12G C13G]	1.26
GGGUCGACUUGGCAUAAUCGCGUGGAUAUGGCACGCAAGUUUCUACCGGGCACCGUAAAUGUCCGACUGGAGCCGUUCGGGCGGCUAUAAACAGACCUCAGGCCCGAAGCGUGGCGGCACCUGCCGCCGGUGGUAAAAAAGAUCGGAAGAGCACACGUCU [U7A U8C G9U U11G C12G]	1.16
GGGUCGAUCUUCCAUAAUCGCGUGGAUAUGGCACGCAAGUUUCUACCGGGCACCGUAAAUGUCCGACUGGAGCCGUUCGGGCGGCUAUAAACAGACCUCAGGCCCGAAGCGUGGCGGCACCUGCCGCCGGUGGUAAAAAAGAUCGGAAGAGCACACGUCU [U7A G9C]	1.25
GGGUCGCUUCUGUAUAAUCGCGUGGAUAUGGCACGCAAGUUUCUACCGGGCACCGUAAAUGUCCGACUGGAGCCGUUCGGGCGGCUAUAAACAGACCUCAGGCCCGAAGCGUGGCGGCACCUGCCGCCGGUGGUAAAAAAGAUCGGAAGAGCACACGUCU [U7C G9U U10C C12G C13U]	1.07
GGGUCGCGCUGCCAUAAUCGCGUGGAUAUGGCACGCAAGUUUCUACCGGGCACCGUAAAUGUCCGACUGGAGCCGUUCGGGCGGCUAUAAACAGACCUCAGGCCCGAAGCGUGGCGGCACCUGCCGCCGGUGGUAAAAAAGAUCGGAAGAGCACACGUCU [U7C U8G G9C U11G]	1.2
GGGUCGGUCUUAUAUAAUCGCGUGGAUAUGGCACGCAAGUUUCUACCGGGCACCGUAAAUGUCCGACUGGAGCCGUUCGGGCGGCUAUAAACAGACCUCAGGCCCGAAGCGUGGCGGCACCUGCCGCCGGUGGUAAAAAAGAUCGGAAGAGCACACGUCU [U7G G9C C12A C13U]	1.34
GGGUCGCUUGAGAAUAAUCGCGUGGAUAUGGCACGCAAGUUUCUACCGGGCACCGUAAAUGUCCGACUGGAGCCGUUCGGGCGGCUAUAAACAGACCUCAGGCCCGAAGCGUGGCGGCACCUGCCGCCGGUGGUAAAAAAGAUCGGAAGAGCACACGUCU [U7C G9U U10G U11A C12G C13A]	1.11
GGGUCGUGGGCGUAUAAUCGCGUGGAUAUGGCACGCAAGUUUCUACCGGGCACCGUAAAUGUCCGACUGGAGCCGUUCGGGCGGCUAUAAACAGACCUCAGGCCCGAAGCGUGGCGGCACCUGCCGCCGGUGGUAAAAAAGAUCGGAAGAGCACACGUCU [U8G U10G U11C C12G C13U]	1.13
GGGUCGAAUGUCAAUAAUCGCGUGGAUAUGGCACGCAAGUUUCUACCGGGCACCGUAAAUGUCCGACUGGAGCCGUUCGGGCGGCUAUAAACAGACCUCAGGCCCGAAGCGUGGCGGCACCUGCCGCCGGUGGUAAAAAAGAUCGGAAGAGCACACGUCU [U7A U8A G9U U10G C13A]	1.24

Variant	aptazyme ON/OFF ratio
GGGUCGCCAUAAGAUAAUCGCGUGGAUAUGGCACGCAAGUUUCUACCGGGCACCGUAAAUGUCCGACUGGAGCCGUUCGGGCGGCUAUAAACAGACCUCAGGCCCGAAGCGUGGCGGCACCUGCCGCCGGUGGUAAAAAAGAUCGGAAGAGCACACGUCU [U7C U8C G9A U11A C12A C13G]	1.18
GGGUCGAUCCAACAUAAUCGCGUGGAUAUGGCACGCAAGUUUCUACCGGGCACCGUAAAUGUCCGACUGGAGCCGUUCGGGCGGCUAUAAACAGACCUCAGGCCCGAAGCGUGGCGGCACCUGCCGCCGGUGGUAAAAAAGAUCGGAAGAGCACACGUCU [U7A G9C U10C U11A C12A]	1.06
GGGUCGGAUCUACAUAAUCGCGUGGAUAUGGCACGCAAGUUUCUACCGGGCACCGUAAAUGUCCGACUGGAGCCGUUCGGGCGGCUAUAAACAGACCUCAGGCCCGAAGCGUGGCGGCACCUGCCGCCGGUGGUAAAAAAGAUCGGAAGAGCACACGUCU [U7G U8A G9U U10C C12A]	1.2
GGGUCGAGUGGUCAUAAUCGCGUGGAUAUGGCACGCAAGUUUCUACCGGGCACCGUAAAUGUCCGACUGGAGCCGUUCGGGCGGCUAUAAACAGACCUCAGGCCCGAAGCGUGGCGGCACCUGCCGCCGGUGGUAAAAAAGAUCGGAAGAGCACACGUCU [U7A U8G G9U U10G U11G C12U]	1.36
GGGUCGUCAAUGCAUAAUCGCGUGGAUAUGGCACGCAAGUUUCUACCGGGCACCGUAAAUGUCCGACUGGAGCCGUUCGGGCGGCUAUAAACAGACCUCAGGCCCGAAGCGUGGCGGCACCUGCCGCCGGUGGUAAAAAAGAUCGGAAGAGCACACGUCU [U8C G9A U10A C12G]	1.29
GGGUCGCGGACCGAUAAUCGCGUGGAUAUGGCACGCAAGUUUCUACCGGGCACCGUAAAUGUCCGACUGGAGCCGUUCGGGCGGCUAUAAACAGACCUCAGGCCCGAAGCGUGGCGGCACCUGCCGCCGGUGGUAAAAAAGAUCGGAAGAGCACACGUCU [U7C U8G U10A U11C C13G]	1.03
GGGUCGCAGGUGUAUAAUCGCGUGGAUAUGGCACGCAAGUUUCUACCGGGCACCGUAAAUGUCCGACUGGAGCCGUUCGGGCGGCUAUAAACAGACCUCAGGCCCGAAGCGUGGCGGCACCUGCCGCCGGUGGUAAAAAAGAUCGGAAGAGCACACGUCU [U7C U8A U10G C12G C13U]	1.41
GGGUCGAUCUGAUAUAAUCGCGUGGAUAUGGCACGCAAGUUUCUACCGGGCACCGUAAAUGUCCGACUGGAGCCGUUCGGGCGGCUAUAAACAGACCUCAGGCCCGAAGCGUGGCGGCACCUGCCGCCGGUGGUAAAAAAGAUCGGAAGAGCACACGUCU [U7A G9C U11G C12A C13U]	1.29
GGGUCGGACAUAUAUAAUCGCGUGGAUAUGGCACGCAAGUUUCUACCGGGCACCGUAAAUGUCCGACUGGAGCCGUUCGGGCGGCUAUAAACAGACCUCAGGCCCGAAGCGUGGCGGCACCUGCCGCCGGUGGUAAAAAAGAUCGGAAGAGCACACGUCU [U7G U8A G9C U10A C12A C13U]	1.06
GGGUCGCUAGACCAUAAUCGCGUGGAUAUGGCACGCAAGUUUCUACCGGGCACCGUAAAUGUCCGACUGGAGCCGUUCGGGCGGCUAUAAACAGACCUCAGGCCCGAAGCGUGGCGGCACCUGCCGCCGGUGGUAAAAAAGAUCGGAAGAGCACACGUCU [U7C G9A U10G U11A]	1.06
GGGUCGCCUUGUGAUAAUCGCGUGGAUAUGGCACGCAAGUUUCUACCGGGCACCGUAAAUGUCCGACUGGAGCCGUUCGGGCGGCUAUAAACAGACCUCAGGCCCGAAGCGUGGCGGCACCUGCCGCCGGUGGUAAAAAAGAUCGGAAGAGCACACGUCU [U7C U8C G9U U11G C12U C13G]	1.07
GGGUCGGCCUAAUAUAAUCGCGUGGAUAUGGCACGCAAGUUUCUACCGGGCACCGUAAAUGUCCGACUGGAGCCGUUCGGGCGGCUAUAAACAGACCUCAGGCCCGAAGCGUGGCGGCACCUGCCGCCGGUGGUAAAAAAGAUCGGAAGAGCACACGUCU [U7G U8C G9C U11A C12A C13U]	1.13
GGGUCGGCAAUCCAUAAUCGCGUGGAUAUGGCACGCAAGUUUCUACCGGGCACCGUAAAUGUCCGACUGGAGCCGUUCGGGCGGCUAUAAACAGACCUCAGGCCCGAAGCGUGGCGGCACCUGCCGCCGGUGGUAAAAAAGAUCGGAAGAGCACACGUCU [U7G U8C G9A U10A]	3.78
GGGUCGGUCCCAGAUAAUCGCGUGGAUAUGGCACGCAAGUUUCUACCGGGCACCGUAAAUGUCCGACUGGAGCCGUUCGGGCGGCUAUAAACAGACCUCAGGCCCGAAGCGUGGCGGCACCUGCCGCCGGUGGUAAAAAAGAUCGGAAGAGCACACGUCU [U7G G9C U10C U11C C12A C13G]	1.09
GGGUCGGAGACGAAUAAUCGCGUGGAUAUGGCACGCAAGUUUCUACCGGGCACCGUAAAUGUCCGACUGGAGCCGUUCGGGCGGCUAUAAACAGACCUCAGGCCCGAAGCGUGGCGGCACCUGCCGCCGGUGGUAAAAAAGAUCGGAAGAGCACACGUCU [U7G U8A U10A U11C C12G C13A]	1.28
GGGUCGUUGUUGCAUAAUCGCGUGGAUAUGGCACGCAAGUUUCUACCGGGCACCGUAAAUGUCCGACUGGAGCCGUUCGGGCGGCUAUAAACAGACCUCAGGCCCGAAGCGUGGCGGCACCUGCCGCCGGUGGUAAAAAAGAUCGGAAGAGCACACGUCU [C12G]	1.45
GGGUCGUCCACACAUAAUCGCGUGGAUAUGGCACGCAAGUUUCUACCGGGCACCGUAAAUGUCCGACUGGAGCCGUUCGGGCGGCUAUAAACAGACCUCAGGCCCGAAGCGUGGCGGCACCUGCCGCCGGUGGUAAAAAAGAUCGGAAGAGCACACGUCU [U8C G9C U10A U11C C12A]	1.24
GGGUCGGCUCGCCAUAAUCGCGUGGAUAUGGCACGCAAGUUUCUACCGGGCACCGUAAAUGUCCGACUGGAGCCGUUCGGGCGGCUAUAAACAGACCUCAGGCCCGAAGCGUGGCGGCACCUGCCGCCGGUGGUAAAAAAGAUCGGAAGAGCACACGUCU [U7G U8C G9U U10C U11G]	1.76
